52 sequences from the supplement of paper PMC10567573 can be followed below.

The data set can be described thus: protein stability index of a GFP-peptide fusion (GPS, HEK-293T) (PSI 1-6); higher = more stable. The conditions noted are these: c terminus: a fixed tail appended.

± gives the standard deviation.
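Also: 24-mer peptide tiles fused after GFP, lentivirally expressed, FACS-sorted into six equal bins by GFP/DsRed ratio, decoded by Illumina sequencing, PSI is the read-weighted mean bin number.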

For the sequence PNSTFPIDKSMTVVLTFITPMLNP [OR4A15], the protein stability index runs as follows: (treatment: DMSO) 2.95 ± 0.38; (treatment: MLN4924 1 uM, 8 h) 2.97 ± 0.38.

PPFWDEDQHRLYKQIKAGAYDFPS [CAMK2A]: the protein stability index reads like this: (treatment: DMSO) 3.4 ± 0.28; (treatment: MLN4924 1 uM, 8 h) 3.54 ± 0.29.

On to PPHKHVARPTEVLAGTQLLYAFFT [TRIB3], for which the protein stability index worked out at 2.46 ± 0.21 (treatment: DMSO) and 2.43 ± 0.15 (treatment: MLN4924 1 uM, 8 h).

Regarding PPKWQIGEQEFEALMRMLDNLGYR [ADD1], the protein stability index came to 2.35 ± 0.26 (treatment: DMSO) and 2.58 ± 0.22 (treatment: MLN4924 1 uM, 8 h).

As to PPPPHPYNPHPGFPELGYSYGGGS [DVL3], the protein stability index runs as follows: (treatment: DMSO) 3.4 ± 0.32; (treatment: MLN4924 1 uM, 8 h) 3.6 ± 0.32.

As to PPWFEGLESRFQSKSGYLRYSCES [DFFB], the protein stability index is, setting by setting: (treatment: DMSO) 2.51 ± 0.19; (treatment: MLN4924 1 uM, 8 h) 2.54 ± 0.2.

In the case of PQGAVLVQREKDLPNYNWNSFGLR [KISS1], the protein stability index came to 3.04 ± 0.17 (treatment: DMSO) and 3.13 ± 0.32 (treatment: MLN4924 1 uM, 8 h).

PRLHGAKAILDAEPGPRPALQPSP [TBC1D10A]: the protein stability index turned out to be 4.81 ± 0.19 (treatment: DMSO) and 4.94 ± 0.17 (treatment: MLN4924 1 uM, 8 h).

For the sequence PSAAQTLRSFCAWQRGLNTPEDSD [ADAMTS4], the protein stability index by setting is: (treatment: DMSO) 4.29 ± 0.25; (treatment: MLN4924 1 uM, 8 h) 4.53 ± 0.17.

As to PSDFCGLTHLVKLDLSKNKLQQLP [LRRC59], the protein stability index is 2.17 ± 0.31 (treatment: DMSO) and 2.16 ± 0.17 (treatment: MLN4924 1 uM, 8 h).

Take PSLHVVKVLLDCGADPDSRDFDNN [FEM1A]: the protein stability index is, setting by setting: (treatment: DMSO) 3.46 ± 0.14; (treatment: MLN4924 1 uM, 8 h) 3.82 ± 0.21.

Consider PSPAAVPRPPSNPPARGTLKTSNL [TRAF3IP2], for which the protein stability index runs as follows: (treatment: DMSO) 5.12 ± 0.1; (treatment: MLN4924 1 uM, 8 h) 4.94 ± 0.21.

Regarding PSSLMETLEQHLNTLEGKKPGNNE [SNAP91], the protein stability index runs as follows: (treatment: DMSO) 5.17 ± 0.09; (treatment: MLN4924 1 uM, 8 h) 5.05 ± 0.17.

On to PTLGGGFHVNLGKESRAQTLQNGR [BRF1], for which the protein stability index reads like this: (treatment: DMSO) 4.04 ± 0.47; (treatment: MLN4924 1 uM, 8 h) 4.14 ± 0.33.

For the sequence PTQLRALNLTEGFAVLHWKPPQNP [TNXB], the protein stability index by setting is: (treatment: DMSO) 2.8 ± 0.66; (treatment: MLN4924 1 uM, 8 h) 3.04 ± 0.63.

PTRCTLEAGAMTFHYIIEQGVCYL [SEC22B]: the protein stability index reads like this: (treatment: DMSO) 2.93 ± 0.96; (treatment: MLN4924 1 uM, 8 h) 3.14 ± 0.46.

In turn, PTSGIVGALMEVMQKRSKAIHSSD [WASL] showed a protein stability index (treatment: DMSO) of 3.14 ± 0.14 and a protein stability index (treatment: MLN4924 1 uM, 8 h) of 3.39 ± 0.19.

With PTVDLNQVLNETRSQYEALVETNR [KRT34], the protein stability index is, setting by setting: (treatment: DMSO) 3.37 ± 0.55; (treatment: MLN4924 1 uM, 8 h) 3.79 ± 0.48.

The sequence PTWWPLPTQVPAAEDYLTWKEWGF [SPAG8] came in with a protein stability index (treatment: DMSO) of 2.58 ± 0.18 and a protein stability index (treatment: MLN4924 1 uM, 8 h) of 2.35 ± 0.35.

In the case of PVKASRSHQELHRELLMNHRRGLG [FAM107A], the protein stability index is, setting by setting: (treatment: DMSO) 3.73 ± 0.27; (treatment: MLN4924 1 uM, 8 h) 3.95 ± 0.42.

PVPATPILQLEECCTHNNSATLSW [TRIM9]: the protein stability index runs as follows: (treatment: DMSO) 3.27 ± 0.16; (treatment: MLN4924 1 uM, 8 h) 3.38 ± 0.18.

Sequence PWDKNPEALAKWAEGRTGFPWIDA [CRY1] returned a protein stability index (treatment: DMSO) of 3.08 ± 0.17 and a protein stability index (treatment: MLN4924 1 uM, 8 h) of 3.04 ± 0.2.

Regarding QAASRIIRNEQFAIRRFQSMPVRL [CDC25B], the protein stability index runs as follows: (treatment: DMSO) 2.75 ± 0.31; (treatment: MLN4924 1 uM, 8 h) 2.74 ± 0.49.

As for QALRGLEGYTWRVAQLEDRRSTTD [ZSWIM9], the protein stability index runs as follows: (treatment: DMSO) 3.91 ± 0.23; (treatment: MLN4924 1 uM, 8 h) 3.75 ± 0.52.

With QAQPLRTTSTLASSLPGHAAKTLP [EHMT1], the protein stability index is, setting by setting: (treatment: DMSO) 4.33 ± 0.16; (treatment: MLN4924 1 uM, 8 h) 4.4 ± 0.29.

Regarding QDMSQVSGKESPPVSDTPDEGDEP [IKZF1], the protein stability index came to 5.38 ± 0.41 (treatment: DMSO) and 5.62 ± 0.32 (treatment: MLN4924 1 uM, 8 h).

In the case of QDSPGPREAVSQLRELCRLWLRPE [ZNF24], the protein stability index (treatment: DMSO) stood at 3.11 ± 0.32 and the protein stability index (treatment: MLN4924 1 uM, 8 h) worked out at 2.9 ± 0.24.

Sequence QEARERWNFDFVTETPLEGDFAWE [CDKN1A] showed a protein stability index (treatment: DMSO) of 4.39 ± 0.29 and a protein stability index (treatment: MLN4924 1 uM, 8 h) of 4.29 ± 0.24.

As to QEEMAEDPLTYKSRLMVVVKMDSS [RHOBTB2], the protein stability index is, setting by setting: (treatment: DMSO) 3.45 ± 0.27; (treatment: MLN4924 1 uM, 8 h) 3.49 ± 0.24.

Consider QEHPRQQLATSSFLLFLLTGIVSV [MOSPD3], for which the protein stability index came out at 3.32 ± 0.49 (treatment: DMSO) and 2.83 ± 0.096 (treatment: MLN4924 1 uM, 8 h).

Consider QELVLKVRIQNPSLRENDFIEIEL [ANKRD40], for which the protein stability index (treatment: DMSO) stood at 2.68 ± 1.1 and the protein stability index (treatment: MLN4924 1 uM, 8 h) stood at 2.38 ± 1.

QEYEALLNIKVKLEAEIATYRRLL [KRT18]: the protein stability index turned out to be 2.89 ± 0.28 (treatment: DMSO) and 2.82 ± 0.42 (treatment: MLN4924 1 uM, 8 h).

QFLNDQISVQNYKQVCKIAALHGL [KLHL14]: the protein stability index reads like this: (treatment: DMSO) 2.14 ± 0.28; (treatment: MLN4924 1 uM, 8 h) 2.17 ± 0.16.

Regarding QGLEQFINKIAGHPLAQNERCLHM [SNX12], the protein stability index reads like this: (treatment: DMSO) 2.27 ± 0.13; (treatment: MLN4924 1 uM, 8 h) 2.41 ± 0.21.

Regarding QGQPDPAPRPGPPAGTPPPTARHF [MOSPD3], the protein stability index by setting is: (treatment: DMSO) 3.77 ± 0.21; (treatment: MLN4924 1 uM, 8 h) 3.65 ± 1.1.

As to QINRLQKLIDRLEKKDLKLEPPEE [NECAB1], the protein stability index is, setting by setting: (treatment: DMSO) 3.22 ± 0.1; (treatment: MLN4924 1 uM, 8 h) 3.7 ± 0.56.

QKKIGAYDQQIWEKSIEQTQIKGL [PHTF1]: the protein stability index reads like this: (treatment: DMSO) 3.76 ± 0.12; (treatment: MLN4924 1 uM, 8 h) 3.73 ± 0.22.

As for QKNKKILKSAKDLPPDALIIEYRG [KMT2E], the protein stability index (treatment: DMSO) worked out at 2.82 ± 0.43 and the protein stability index (treatment: MLN4924 1 uM, 8 h) is 3.07 ± 0.37.

QLKKCETRKLSPGKKRCKDIKRLL [SMG5]: the protein stability index runs as follows: (treatment: DMSO) 3.32 ± 0.51; (treatment: MLN4924 1 uM, 8 h) 3.22 ± 0.18.

QLNGTANDTAGPELPDPLGGLLDE [NFE2L1]: the protein stability index is, setting by setting: (treatment: DMSO) 5.11 ± 0.32; (treatment: MLN4924 1 uM, 8 h) 5.37 ± 0.32.

For QLQALNRRFQQTQYLALPERAELA [DLX1], the protein stability index runs as follows: (treatment: DMSO) 3.05 ± 0.28; (treatment: MLN4924 1 uM, 8 h) 3.23 ± 0.085.

For QLWGQKKKNSNMTYEKLSRAMRYY [ELF3], the protein stability index worked out at 2.29 ± 0.042 (treatment: DMSO) and 2.32 ± 0.25 (treatment: MLN4924 1 uM, 8 h).

In the case of QMLRKTVKDEAHQAQKDPKKDRPL [PPP2R5C], the protein stability index reads like this: (treatment: DMSO) 4.89 ± 0.1; (treatment: MLN4924 1 uM, 8 h) 4.97 ± 0.24.

QQACTHTKETEQLRSQLQTLKQQH [CCDC89]: the protein stability index came to 4.71 ± 0.17 (treatment: DMSO) and 4.65 ± 0.17 (treatment: MLN4924 1 uM, 8 h).

With QRFEVIEFDDGSGSVLRIQPLRTP [PTPRD], the protein stability index came out at 2.68 ± 0.28 (treatment: DMSO) and 2.99 ± 0.21 (treatment: MLN4924 1 uM, 8 h).

As for QRSTVFKTTIPEEEEEEEEAAGVV [LMNB1], the protein stability index (treatment: DMSO) came to 5.6 ± 0.11 and the protein stability index (treatment: MLN4924 1 uM, 8 h) worked out at 5.56 ± 0.22.

With QRTHTGEKPYKCPECGEIFAHSSN [ZNF263], the protein stability index is, setting by setting: (treatment: DMSO) 3.6 ± 0.37; (treatment: MLN4924 1 uM, 8 h) 4.07 ± 0.47.

The sequence QSFTLRGDHRSPASAQKFSSRSTV [NET1] registered a protein stability index (treatment: DMSO) of 3.92 ± 0.097 and a protein stability index (treatment: MLN4924 1 uM, 8 h) of 3.9 ± 0.3.

With QTEETQETALTLACCGGFLEVADF [ANKRD17], the protein stability index is, setting by setting: (treatment: DMSO) 3.79 ± 0.28; (treatment: MLN4924 1 uM, 8 h) 3.96 ± 0.28.

On to QTNSTKNSAAATSPKGTLPPAALE [CAMK2B], for which the protein stability index reads like this: (treatment: DMSO) 5.32 ± 0.16; (treatment: MLN4924 1 uM, 8 h) 5.22 ± 0.24.

Turning to QTVFQKKNLQQTTNTTSTQMTNIG [IQUB], the protein stability index (treatment: DMSO) came to 4.08 ± 0.2 and the protein stability index (treatment: MLN4924 1 uM, 8 h) is 4.28 ± 0.27.

Regarding QVFRLAFRSGALDLDSCSRDGALL [MYORG], the protein stability index worked out at 2.33 ± 0.29 (treatment: DMSO) and 2.14 ± 0.091 (treatment: MLN4924 1 uM, 8 h).
